In patent publication US20040014658A1:

What was measured:
Test in all cases: cell-based or functional assay
FGF Receptor 3 = target: FGF Receptor 3
FGF Receptor 2 = target: FGF Receptor 2
FGF Receptor 1 = target: FGF Receptor 1

Measured: JNK activation (Western, anti-active JNK), lowest active concentration

FGF Receptor 3, sequence (P22607 23-806): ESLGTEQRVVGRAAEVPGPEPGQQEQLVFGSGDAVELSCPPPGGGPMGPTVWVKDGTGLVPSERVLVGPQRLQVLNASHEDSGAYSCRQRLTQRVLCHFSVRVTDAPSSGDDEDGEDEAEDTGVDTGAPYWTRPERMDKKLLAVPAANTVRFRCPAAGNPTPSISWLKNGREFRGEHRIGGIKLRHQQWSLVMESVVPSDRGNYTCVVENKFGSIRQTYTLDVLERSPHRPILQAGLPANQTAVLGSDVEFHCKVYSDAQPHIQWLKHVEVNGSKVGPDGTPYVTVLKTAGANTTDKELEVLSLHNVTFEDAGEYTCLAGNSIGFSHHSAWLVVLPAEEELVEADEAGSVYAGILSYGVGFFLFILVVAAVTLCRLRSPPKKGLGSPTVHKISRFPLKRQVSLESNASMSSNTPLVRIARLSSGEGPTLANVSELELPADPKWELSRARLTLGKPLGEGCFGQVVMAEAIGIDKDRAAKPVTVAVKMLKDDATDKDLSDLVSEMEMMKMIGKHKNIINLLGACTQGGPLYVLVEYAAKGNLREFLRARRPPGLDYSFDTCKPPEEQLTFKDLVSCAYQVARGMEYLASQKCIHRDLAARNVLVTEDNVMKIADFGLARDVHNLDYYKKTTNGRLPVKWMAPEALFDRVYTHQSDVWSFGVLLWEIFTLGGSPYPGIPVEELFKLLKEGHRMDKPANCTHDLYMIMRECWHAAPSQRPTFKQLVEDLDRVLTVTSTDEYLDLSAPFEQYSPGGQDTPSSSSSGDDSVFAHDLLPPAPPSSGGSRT

wild type FGF-9 (ligand)
< 12.5 ng/mL: all assays above
